# Measured values published in patent US7317091.
# Target: FcγRIIIa on human PBMC effector cells (human) (UniProt P08637)
# Assay: cell-based or functional assay
Substance,"ADCC EC50, DoHH-2 targets, V158/F158 PBMCs [ng/mL]",ADCC Fold Improvement Over WT [fold],"ADCC log(EC50), DoHH-2 targets, V158/F158 PBMCs"
S239D/I332E alemtuzumab (antibody),3,3.3,0.49 log(ng/ml)
V264I/I332E alemtuzumab (antibody),4,,0.6 log(ng/ml)

# Target: human FcγRIIb extracellular region, GST-tagged (human) (UniProt P31994)
# Sequence (P31994 43-217): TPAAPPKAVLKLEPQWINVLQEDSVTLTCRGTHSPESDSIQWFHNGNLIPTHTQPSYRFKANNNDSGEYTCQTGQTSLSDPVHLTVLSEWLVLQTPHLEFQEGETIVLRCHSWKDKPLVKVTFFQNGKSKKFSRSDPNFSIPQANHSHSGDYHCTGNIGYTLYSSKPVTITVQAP
# Assay: AlphaScreen competition
row,Substance,FcγRIIb Fold [fold vs WT]
1,S239D/I332E trastuzumab (antibody),19.7
2,S239D/V264I/I332E trastuzumab (antibody),14.4
3,S239N/S298A/I332E trastuzumab (antibody),5.15

# Target: human V158 FcγRIIIa extracellular region fused with glutathione S-transferase (GST) (human) (UniProt P08637)
# Sequence (P08637 17-208 F176V): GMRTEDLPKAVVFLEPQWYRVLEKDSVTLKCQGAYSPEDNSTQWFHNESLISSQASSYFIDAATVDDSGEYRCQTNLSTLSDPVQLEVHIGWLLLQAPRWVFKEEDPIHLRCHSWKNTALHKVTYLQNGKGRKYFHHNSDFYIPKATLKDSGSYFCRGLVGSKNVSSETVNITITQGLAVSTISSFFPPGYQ
# Assay: AlphaScreen competition
row,Substance,FcγRIIIa Fold [fold vs WT]
1,E233D trastuzumab (antibody),0.85
2,E272Y trastuzumab (antibody),8.7
3,E283R trastuzumab (antibody),0.67
4,E318R trastuzumab (antibody),1.06
5,E333H trastuzumab (antibody),0.75
6,E333T trastuzumab (antibody),0.78
7,F275W trastuzumab (antibody),1.11
8,K274E trastuzumab (antibody),6.11
9,K274L trastuzumab (antibody),1.09
10,K274R trastuzumab (antibody),1.41
11,K274T trastuzumab (antibody),1.41
12,K274Y trastuzumab (antibody),1.06
13,K326I trastuzumab (antibody),1.43
14,K326T trastuzumab (antibody),1.88
15,N276E trastuzumab (antibody),0.87
16,N276R trastuzumab (antibody),0.66
17,N276S trastuzumab (antibody),0.41
18,N276Y trastuzumab (antibody),0.56
19,P230A trastuzumab (antibody),1.09
20,P230A/E233D trastuzumab (antibody),0.92
21,P230A/E233D/I332E trastuzumab (antibody),1.87
22,S239D/A330Y/I332E/K326E trastuzumab (antibody),64.1
23,S239D/A330Y/I332E/L234I trastuzumab (antibody),22.4

row,Substance,FcγRIIIa Fold [fold vs WT]
1,S239D/A330Y/I332E/L235D trastuzumab (antibody),7.04
2,S239D/A330Y/I332E/V240I trastuzumab (antibody),28
3,S239D/A330Y/I332E/V264T trastuzumab (antibody),17.7
4,S239D/I332E alemtuzumab (antibody),56.1
5,S239D/I332E/A330I trastuzumab (antibody),59.1
6,S239D/V264I/I332E trastuzumab (antibody),36.6
7,S239N/A330L/I332E trastuzumab (antibody),12.9
8,S239N/A330Y/I332E trastuzumab (antibody),14.2
9,S239N/S298A/I332E trastuzumab (antibody),32.1
10,S324R trastuzumab (antibody),0.71
11,S324V trastuzumab (antibody),1.17
12,S324Y trastuzumab (antibody),0.98
13,T335D trastuzumab (antibody),2.79
14,T335R trastuzumab (antibody),2.58
15,T335Y trastuzumab (antibody),1.56
16,V240I/V266I trastuzumab (antibody),1.72
17,V264I/S298A/I332E trastuzumab (antibody),16.5
18,V273I trastuzumab (antibody),0.79
19,V302I trastuzumab (antibody),1.01
20,V323I trastuzumab (antibody),0.83
21,Y278E trastuzumab (antibody),0.9
22,Y278T trastuzumab (antibody),1.87
23,Y278W trastuzumab (antibody),0.41
